Measured values reported in US7871610B2, “Antibodies to Tie1 ectodomain” (Dyax Corp., priority 2003, dated 2011).
Each block holds one molecule with its values, some of them ahead of it.

Assays:
Assay type in all cases: binding
Tie1 = Tie1 (Homo sapiens, UniProt P35590); assay: Immunofluorescence staining of Tie1-transfected COS1 cells; details: COS1 cells transfected with pcDNA3-Tie1-V5; antibodies 5 μg/ml
Procedure: COS1 cells on the glass coverslips were transiently transfected with pcDNA3-Tie1-V5 (the V5-epitope was added to the 3′ terminus of pcDNA3-Tie1) (1 μg DNA per 10 cm cell culture plate) using FUGENE™ 6 (Roche) according to manufacturer's instruction and incubated for 48 h before staining. Cells were fixed in 4% paraformaldehyde for 10 min at 4° C. If required, the cells were permeabilized with 0.2% Triton X-100 in PBS for 5 min. Unspecific binding sites were blocked by incubation with 1% BSA in PBS for 30 min. The cells were then stained with anti-Tie1 antibodies (5 μg/ml) and anti-V5 antibodies for 1 h at room temperature, followed by incubation with FITC— conjugated anti-human antibodies (DAKO, 40 μg/ml) and TRITC-conjugated anti-mouse antibodies (DAKO, 15 μg/ml) for 30 min. Hoechst 33258 fluorochrome (Sigma, 0.5 μg/ml) was used for the staining of the nuclei.

Mouse Tie 1-Fc = target: T1, Mouse Tie 1-Fc (Mus musculus, UniProt Q06806); assay: BIAcore, E3 Fabs on mouse Tie1-Fc; details: E3 Fab over biotinylated mouse Tie-1 Fc on streptavidin chip; 1:1 model
T1 sequence (Q06806 23-755 limits assumed): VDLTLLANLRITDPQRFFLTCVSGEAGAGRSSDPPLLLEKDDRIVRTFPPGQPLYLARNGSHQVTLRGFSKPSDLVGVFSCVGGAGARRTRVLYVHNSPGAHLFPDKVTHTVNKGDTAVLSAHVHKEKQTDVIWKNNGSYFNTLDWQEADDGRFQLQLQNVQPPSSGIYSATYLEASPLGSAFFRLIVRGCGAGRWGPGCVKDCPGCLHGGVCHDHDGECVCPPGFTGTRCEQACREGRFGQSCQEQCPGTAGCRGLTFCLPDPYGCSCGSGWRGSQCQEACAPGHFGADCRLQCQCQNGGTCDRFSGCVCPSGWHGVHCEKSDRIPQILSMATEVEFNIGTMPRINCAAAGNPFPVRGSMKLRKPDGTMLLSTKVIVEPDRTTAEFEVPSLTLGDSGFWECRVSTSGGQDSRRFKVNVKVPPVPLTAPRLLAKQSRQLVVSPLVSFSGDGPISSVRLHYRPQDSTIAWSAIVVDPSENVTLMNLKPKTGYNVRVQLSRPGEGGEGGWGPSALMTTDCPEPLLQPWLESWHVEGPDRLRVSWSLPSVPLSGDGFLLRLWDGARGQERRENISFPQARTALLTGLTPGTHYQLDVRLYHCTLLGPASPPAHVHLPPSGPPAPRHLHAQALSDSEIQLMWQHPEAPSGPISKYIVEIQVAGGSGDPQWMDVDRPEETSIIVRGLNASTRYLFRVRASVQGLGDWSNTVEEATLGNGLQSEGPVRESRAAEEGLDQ
Procedure: Mouse Tie 1-Fc antigen (0.5 mg/ml stock) was biotinylated using established procedures and after dilution 1/100 fold in HBS this was then used for capturing to a streptavidin chip. This was coated to a resonance value of 740RU. All analysis was performed in HBS buffer. The parental Fab E3 0.587 mg/ml (11740 nM) was diluted 1/587 in HBS+BSA to obtain a stock of 20 nM and the germlined Fab E3 0.025 mg/ml (500 nM) was diluted 1/25 in HBS+BSA to obtain a stock of 20 nM. Serial dilutions were made of each Fab preparation to obtain 10 nM, 5 nM, 2.5 nM, and 1.25 nM. For the association phase samples were injected at 30 μl/min for 4 minutes using kinject program. This was followed by a 10 minutes dissociation phase, any remaining sample was stripped from the Tie-1 Fc surface at a flow of 50 μl/min with a single injection of 50 mM NaOH+1 M NaCl for 18 seconds. All samples were run and analyzed in duplicate.
Sensorgrams were analyzed using the simultaneous ka/kd fitting program with 1:1 model in the BIAEVALUATION™ software 3.1.

[1] = target: T2, recombinant human Tie1-Fc (Homo sapiens, UniProt P35590); assay: BIAcore, parental and germlined E3b Fabs on human Tie-1/Fc; details: E3 Fab over human Tie-1/Fc coated on CM5 chip; 1:1 model
T2 construct: selected against the Tie1 extracellular domain fused to human Fc or to a histidine purification tag
T2 sequence (P35590 22-759 limits assumed): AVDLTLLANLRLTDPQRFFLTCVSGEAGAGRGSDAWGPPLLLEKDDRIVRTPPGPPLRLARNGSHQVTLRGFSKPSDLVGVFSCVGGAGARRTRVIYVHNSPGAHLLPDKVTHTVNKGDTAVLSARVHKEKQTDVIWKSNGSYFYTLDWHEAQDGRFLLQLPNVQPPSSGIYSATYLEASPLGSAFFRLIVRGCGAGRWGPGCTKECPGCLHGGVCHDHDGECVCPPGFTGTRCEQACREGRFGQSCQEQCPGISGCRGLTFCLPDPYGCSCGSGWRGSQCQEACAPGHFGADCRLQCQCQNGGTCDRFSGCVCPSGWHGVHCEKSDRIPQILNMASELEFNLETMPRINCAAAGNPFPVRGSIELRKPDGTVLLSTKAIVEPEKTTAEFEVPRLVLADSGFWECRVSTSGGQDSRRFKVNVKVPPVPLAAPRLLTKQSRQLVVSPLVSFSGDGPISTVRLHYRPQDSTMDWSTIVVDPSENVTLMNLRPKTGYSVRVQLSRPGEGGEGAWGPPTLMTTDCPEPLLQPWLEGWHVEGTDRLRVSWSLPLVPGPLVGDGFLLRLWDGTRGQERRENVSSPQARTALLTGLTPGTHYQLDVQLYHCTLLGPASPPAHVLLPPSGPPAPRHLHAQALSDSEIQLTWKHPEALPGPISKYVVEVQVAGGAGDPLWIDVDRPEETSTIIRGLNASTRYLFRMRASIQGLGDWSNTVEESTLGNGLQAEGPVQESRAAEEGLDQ
Procedure: Recombinant human Tie-1/Fc was coated on a CM5 chip. The surface of the chip was first activated with a 7-minute pulse of 0.05 M NHS/0.2 M EDC, then Tie-1/Fc (2 μg/ml in 10 mM sodium acetate, pH 4.0) was run over the chip surface until 750 RUs were coated on the surface. All flow cells were subsequently deactivated with a 7-minute pulse of 1 M ethanolamine hydrochloride, pH 8.5. All further experiments were performed in HBS buffer.
The parental and the germlined E3b Fabs were prepared. A series of dilution (50, 25, 12.5, 6.25 and 3.125 nM) was prepared in HBS buffer. Samples were injected at 30 μl/min for 5.3 minutes using the KINJECT™ program. This was followed by a 10-minute dissociation phase, and the remaining Fab was stripped from the surface with a single 18-sec injection of 50 mM NaOH/1 M NaCl.
Sensorgrams were analyzed using the simultaneous ka/kd fitting program from the BIAEVALUATION™ software 3.1 assuming a 1:1 model.

Chain of Tie1 (P35590 22-1138): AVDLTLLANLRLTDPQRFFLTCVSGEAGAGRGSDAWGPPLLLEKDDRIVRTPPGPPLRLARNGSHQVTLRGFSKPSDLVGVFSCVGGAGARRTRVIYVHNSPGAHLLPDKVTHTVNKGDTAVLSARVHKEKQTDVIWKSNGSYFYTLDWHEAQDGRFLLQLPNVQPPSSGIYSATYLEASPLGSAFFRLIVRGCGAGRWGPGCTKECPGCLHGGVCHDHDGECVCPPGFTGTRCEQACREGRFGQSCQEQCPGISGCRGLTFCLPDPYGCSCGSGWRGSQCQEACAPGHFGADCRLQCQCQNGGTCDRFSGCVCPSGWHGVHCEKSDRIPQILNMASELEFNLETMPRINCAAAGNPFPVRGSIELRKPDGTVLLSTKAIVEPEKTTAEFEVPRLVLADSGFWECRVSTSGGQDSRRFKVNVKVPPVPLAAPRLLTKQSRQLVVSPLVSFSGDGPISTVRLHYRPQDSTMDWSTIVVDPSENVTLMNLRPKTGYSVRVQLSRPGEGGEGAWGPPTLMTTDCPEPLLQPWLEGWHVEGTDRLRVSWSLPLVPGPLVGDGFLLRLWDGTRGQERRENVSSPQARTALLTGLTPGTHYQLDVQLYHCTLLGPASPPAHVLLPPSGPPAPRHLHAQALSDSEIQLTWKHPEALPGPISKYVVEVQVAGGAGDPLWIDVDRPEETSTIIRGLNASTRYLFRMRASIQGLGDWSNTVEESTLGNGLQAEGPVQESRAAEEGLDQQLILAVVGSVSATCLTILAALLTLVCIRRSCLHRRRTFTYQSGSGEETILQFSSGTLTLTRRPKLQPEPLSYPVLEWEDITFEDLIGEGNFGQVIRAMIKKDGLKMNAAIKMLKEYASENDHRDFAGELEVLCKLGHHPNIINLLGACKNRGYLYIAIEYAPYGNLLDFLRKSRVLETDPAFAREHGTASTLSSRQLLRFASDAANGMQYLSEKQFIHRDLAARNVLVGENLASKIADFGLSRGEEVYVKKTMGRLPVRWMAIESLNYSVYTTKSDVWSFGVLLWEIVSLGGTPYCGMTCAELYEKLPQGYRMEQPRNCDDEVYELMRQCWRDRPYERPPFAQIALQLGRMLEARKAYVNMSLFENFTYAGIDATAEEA

IF: Tie1-transfected (Tie1): cross
B1: P-F4: anti-Tie1 antibody; VH SEQ ID NO:48, VL SEQ ID NO:50 (antibody, V domains shown)
VH: EVQLLESGGGLVQPGGSLRLSCAASGFTFSAYMMSWVRQAPGKGLEWVSSIYPSGGYTYYADSVKGRFTISRDNSKNTLYLQMNSLRAEDTAVYYCARGLRGGPDYWGQGTLVTVSSASTKGPSVFPLAPSSKSTSGGTAALG
VL: QDIQMTQSPSTLSAYVGDSVTITCRASQSVRRSLAWYQQRPGKAPKSLIYKASTLETGVPPRFSGSGSGTEFTLTISSLQPEDSAIYYCQQYGSFPLTFGGG
modifications: Synthetically generated peptide

ka (Mouse Tie 1-Fc): 246000 M⁻¹ s⁻¹ | kd (Mouse Tie 1-Fc): 0.00095 s⁻¹
B2: E3 Fab parental (antibody, V domains shown)
VH: EVQLLESGGGLVQPGGSLRLSCAASGFTFSMYGMVWVRQAPGKGLEWVSVISPSGGNTGYADSVKGRFTISRDNSKNTLYLQVNSLRAEDTAVYYCARAPRGYSYGYYYWGQGTLVTVSSASTKGPSVFPLAPSSKSTSGG
VL: DIQMTQSPLSLSASVGDRVTITCRASQGIGHYLAWYQQKPGKVPKLLIYTASTLQSGVPSRFSGSGSGTDFTLTINSLQPEDVATYYCQQFNSYPHTFGQGTRLDIK

ka [1]: 88100 M⁻¹ s⁻¹ | kd [1]: 0.00105 s⁻¹
B3: E3 Fab Parental (antibody, V domains shown)
VH: EVQLLESGGGLVQPGGSLRLSCAASGFTFSMYGMVWVRQAPGKGLEWVSVISPSGGNTGYADSVKGRFTISRDNSKNTLYLQVNSLRAEDTAVYYCARAPRGYSYGYYYWGQGTLVTVSSASTKGPSVFPLAPSSKSTSGG
VL: DIQMTQSPLSLSASVGDRVTITCRASQGIGHYLAWYQQKPGKVPKLLIYTASTLQSGVPSRFSGSGSGTDFTLTINSLQPEDVATYYCQQFNSYPHTFGQGTRLDIK
